The target in one data set is T1, Δ55AnCYPOR (Anopheles minimus, UniProt A4ZIT2).
T1 construct: soluble form lacking the N-terminal membrane region (Δ55), pET28a vector, expressed in E. coli BL21 (DE3), purified
T1 sequence (A4ZIT2 56-679): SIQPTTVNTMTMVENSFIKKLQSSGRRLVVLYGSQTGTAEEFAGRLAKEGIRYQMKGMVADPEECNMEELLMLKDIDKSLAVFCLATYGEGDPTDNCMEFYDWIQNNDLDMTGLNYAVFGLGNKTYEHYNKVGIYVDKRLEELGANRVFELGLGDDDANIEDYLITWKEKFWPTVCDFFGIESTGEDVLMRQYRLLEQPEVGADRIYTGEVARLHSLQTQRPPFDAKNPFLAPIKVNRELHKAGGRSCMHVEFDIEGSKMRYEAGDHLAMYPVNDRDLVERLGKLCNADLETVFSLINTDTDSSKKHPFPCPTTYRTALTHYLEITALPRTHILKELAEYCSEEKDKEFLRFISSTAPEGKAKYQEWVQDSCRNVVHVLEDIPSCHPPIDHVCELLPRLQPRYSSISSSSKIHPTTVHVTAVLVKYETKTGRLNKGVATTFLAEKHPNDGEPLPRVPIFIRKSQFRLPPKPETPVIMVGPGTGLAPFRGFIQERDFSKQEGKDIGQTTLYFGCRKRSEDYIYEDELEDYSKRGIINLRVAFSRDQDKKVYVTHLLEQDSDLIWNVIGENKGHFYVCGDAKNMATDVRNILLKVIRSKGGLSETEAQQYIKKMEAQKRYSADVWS
Description: flavin content of purified protein, fluorometric. Type of data set: binding. The settings on record: co-purified flavin; no affinity constant. An excerpt: flavin content of purified protein, fluorometric on Δ55AnCYPOR

Data set [1] relates to T2, CYP6AA3 reconstituted with rat CYPOR.
T2 construct: CYP6AA3 in Sf9 baculovirus microsomes; purified rat CYPOR (pIN-rat CYPOR, E. coli C43 (DE3), Ni-NTA) added, ratio 3:1; with NADPH--cytochrome P450 reductase (Rattus norvegicus)
The experiment in a line: benzyloxyresorufin O-dealkylation, fluorescence of resorufin, microsomes + purified CYPOR. In kind it is biochemical, Anopheles minimus. The settings on record: 50 mM Tris-HCl pH 7.5; rat CYPOR as redox partner; apparent Km; read-out: CYP3AA3-mediated BROD activity (pmole resorufin produced/min/pmol P450) ^a / Km.

The test system of data set [2] is T3, CYP6AA3 reconstituted with flAnCYPOR.
T3 construct: CYP6AA3 in Sf9 baculovirus microsomes; with NADPH--cytochrome P450 reductase
The data set is described as above. Particulars: 50 mM Tris-HCl pH 7.5; wild-type flAnCYPOR; apparent Km; read-out: CYP3AA3-mediated BROD activity (pmole resorufin produced/min/pmol P450) ^a / Km. In kind it is biochemical, Anopheles minimus.

For data set [3], the system named is NC(=O)C1=CN([C@@H]2O[C@H](COP(=O)(O)OP(=O)(O)OC[C@H]3O[C@@H](n4cnc5c(N)ncnc54)[C@H](OP(=O)(O)O)[C@@H]3O)[C@@H](O)[C@H]2O)C=CC1. Description: purified protein. In kind it is biochemical, Anopheles minimus. Particulars: 0.1 M Tris-Cl pH 7.5, 25 °C, co-substrate cytochrome c, extra flavins added.
Substrate in the data set “purified protein”: NC(=O)C1=CN([C@@H]2O[C@H](COP(=O)(O)OP(=O)(O)OC[C@H]3O[C@@H](n4cnc5c(N)ncnc54)[C@H](OP(=O)(O)O)[C@@H]3O)[C@@H](O)[C@H]2O)C=CC1
Description: purified protein. Particulars: 0.1 M Tris-Cl pH 7.5, 25 °C, co-substrate cytochrome c, extra flavins added.

For `Cc1cc2nc3c(=O)[nH]c(=O)nc-3n(C[C@H](O)[C@H](O)[C@H](O)COP(=O)(O)OP(=O)(O)OC[C@H]3O[C@@H](n4cnc5c(N)ncnc54)[C@H](O)[C@@H]3O)c2cc1C` [FAD], the “FAD ^a” value at Δ55AnCYPOR came to 0.64 ± 0.03 mol/mol.
With `Cc1cc2nc3c(=O)[nH]c(=O)nc-3n(C[C@H](O)[C@H](O)[C@H](O)COP(=O)(O)O)c2cc1C` [FMN], at Δ55AnCYPOR, the “FMN ^a” value was 0.52 ± 0.01 mol/mol.
Turning to `O=c1ccc2nc3ccc(OCc4ccccc4)cc3oc-2c1` [benzyloxyresorufin], the figures for the Km in data set [1] and in data set [2] were 1.69 ± 0.24 µM and 1.9 ± 0.61 µM, respectively.
Consider “Δ55AnCYPOR (Anopheles minimus; C427R/L219F/L86F)”, for which the Km in data set [3] worked out at 7.02 ± 1.75 µM.
On to “Δ55AnCYPOR (Anopheles minimus; L219F/L86F)”, for which the Km in data set [3] is 6.49 ± 1.19 µM.
Consider “Δ55AnCYPOR (Anopheles minimus; L219F/L86F/W678A)”, for which the Km in data set [3] turned out to be 3.34 ± 0.83 µM.
Turning to “Δ55AnCYPOR (Anopheles minimus; L219F/L86F/W678H)”, the Km in data set [3] came out at 1.91 ± 0.44 µM.

B1: Δ55AnCYPOR (Anopheles minimus) (protein)
chain: T1 sequence (A4ZIT2 56-679)
Turning to B1, in the data set “purified protein”, the Km was determined as 9.61 ± 0.30 µM.

These data come from PMC3565348, “Modeling of Anopheles minimus Mosquito NADPH-Cytochrome P450 Oxidoreductase (CYPOR) and Mutagenesis Analysis” (International Journal of Molecular Sciences, 2013).
